Measured values taken from patent CN115960228A (UNIV XUZHOU MEDICAL, dated 2023).

Molecular target: T1, CD19 protein on the cell surface (细胞表面的CD19蛋白) (human, UniProt P15391 20-556)
T1 construct: whole, on cells; also called 人CD19
T1 sequence (looked up): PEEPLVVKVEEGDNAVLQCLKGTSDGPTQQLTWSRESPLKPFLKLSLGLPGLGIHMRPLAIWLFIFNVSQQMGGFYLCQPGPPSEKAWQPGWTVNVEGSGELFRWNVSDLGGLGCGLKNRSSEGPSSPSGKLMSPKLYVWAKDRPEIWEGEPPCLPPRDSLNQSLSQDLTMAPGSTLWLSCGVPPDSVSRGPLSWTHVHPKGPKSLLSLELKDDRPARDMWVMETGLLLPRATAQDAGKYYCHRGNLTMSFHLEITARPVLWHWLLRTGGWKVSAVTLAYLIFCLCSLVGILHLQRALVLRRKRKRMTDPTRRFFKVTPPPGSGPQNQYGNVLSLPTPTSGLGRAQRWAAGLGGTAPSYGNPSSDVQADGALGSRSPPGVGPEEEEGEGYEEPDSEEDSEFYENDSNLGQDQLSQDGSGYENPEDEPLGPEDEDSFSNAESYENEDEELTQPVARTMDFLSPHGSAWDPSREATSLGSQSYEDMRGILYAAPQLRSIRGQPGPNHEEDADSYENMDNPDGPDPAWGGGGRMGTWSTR
Assay: flow cytometry on cells; antibody purified from cell supernatant or ascites, compared with hybridoma supernatant

binding result: binds
B1: CD19-6E1B8抗体 (anti-human CD19 monoclonal antibody, clone 6E1B8) (antibody, V domains shown)
VH: EVQLKESGPGLVAPSQSLSITCTVSGFSLTSHGVSWVRQPPGKGLEWLGVIWGDGRTSYHSALISRLSISKSDSKSQVFLKLNSLQTDDTATYYCAKKGAYYGSDYRYYAMDSWGQGTSVTVSS
VL: DIQLTQTPLSLPVSLGDQASISCRSSQSLVYSNGNTYLHWYLQKPGQSPKLLIYKASNRFSGVPDRFSGSGSGTDFTLKISRVEAEDLGVYFCSQSTHVPWTFGGGTKLEIKR
notes: It was purified on Protein G from ascites or from cell supernatant; also called CD19抗体; 抗CD19的单克隆抗体
